Test results published in US20250195578A1, “MEDIUM COMPOSITION FOR CULTURING URINE-DERIVED STEM CELL, METHOD FOR ISOLATING AND CULTURING URINE-DERIVED STEM CELL USING SAME, URINE-DERIVED STEM CELL WITH IMPROVED THERAPEUTIC FUNCTION FOR RENAL DISEASE, AND CELL THERAPY PRODUCT COMPOSITION CONTAINING SAME” (EHLBIO CO., LTD., priority 2021, published 2025).

Experiments:
[1] = test system: klotho gene; test: Optimal additive concentration: klotho gene expression in urine-derived stem cells; format: cell-based, human; conditions: for effect on klotho gene expression of addition to TM8 medium: compared to control group, dose-dependent; for optimal concentration (klotho gene expression): enhancement in gene expression relative to added dosage
Protocol: (§1) In this Example, cell proliferation rate or klotho gene analysis was conducted with various concentrations of lipid mixture (CDLC), T3, FGF23, Calcifediol, and PTH in the TM8 culture medium to explore their optimal concentrations (see FIG. 5).
Furthermore, FGF23, Calcifediol, and PTH that are added to the culture medium of the present disclosure are growth factors and hormones that interact through the endocrine system in the human kidney. The klotho proteins in the human body mediate these interactions. The inventors aimed to enhance the expression of klotho proteins in urine-derived stem cells by mimicking the endocrine system in the human body through the composition of the culture medium. In this Example, evaluation was made of the enhancement of klotho gene expression in urine-derived stem cells in various concentration ranges of FGF23, Calcifediol, and PTH to determine their optimal concentrations.
(§2) Additionally, in this Example, to explore the optimal concentrations while excluding the interactions among the substances, each substance was individually added to the TM8 basal medium (hereinafter referred to as proliferation or klotho gene TM8-Basal), and cell expression was analyzed and compared. The TM8 medium containing all substances at their optimal concentrations was used as the control group (FIG. 6).

[2] = test system: urine-derived stem cells; test: Optimal additive concentration: cell proliferation rate of urine-derived stem cells; format: cell-based, human; conditions: enhancement in proliferation relative to added dosage
Protocol: as §1
Specifically, CDLC was used to compensate for the decrease in cell proliferation rate caused by low serum usage, while T3 was used to facilitate the proliferation of urine-derived stem cells with characteristics of epithelial cells. In this example, evaluation was made of the improvement of cell proliferation rate in urine-derived stem cells in various concentration ranges of lipid mixture and T3 to determine their optimal concentrations.
as §2

Molecule | effect on klotho gene expression of addition to TM8 medium [1] | optimal concentration (klotho gene expression) [1] | optimal concentration (cell proliferation) [2]
C=C1CC[C@H](O)C/C1=C/C=C1\CCC[C@]2(C)[C@@H]([C@H](C)CCCC(C)(C)O)CC[C@@H]12 [Calcifediol, reference compound] | increased klotho gene expression | 100 nM | –
N[C@@H](Cc1cc(I)c(Oc2ccc(O)c(I)c2)c(I)c1)C(=O)O [T3, Triiodo-L-thyronine] | – | – | 10 nM
PTH: parathyroid hormone (PTH), medium additive (Sigma-Aldrich) (peptide, UniProt P01270 32-115, looked up, Parathyroid hormone) Parathyroid hormone: SVSEIQLMHNLGKHLNSMERVEWLRKKLQDVHNFVALGAPLAPRDAGSQRPRKKEDNVLVESHEKSLGEADKADVNVLTKAKSQ | increased klotho gene expression | 100 nM | –
FGF23: growth factor added to the culture medium (Sigma-Aldrich) (protein, UniProt Q9GZV9 25-251, looked up) Fibroblast growth factor 23: YPNASPLLGSSWGGLIHLYTATARNSYHLQIHKNGHVDGAPHQTIYSALMIRSEDAGFVVITGVMSRRYLCMDFRGNIFGSHYFDPENCRFQHQTLENGYDVYHSPQYHFLVSLGRAKRAFLPGMNPPPYSQFLSRRNEIPLIHFNTPIPRRHTRSAEDDSERDPLNVLKPRARMTPAPASCSQELPSAEDNSPMASDPLGVVRGGRVNTHAGGTGPEGCRPFAKFI | increased klotho gene expression | 10 ng/mL | –
